In a protein production outcome set (Wang et al. 2014):

Test: label from the status in PepcDB records

Sequence | protein production
MGMASMSSGTESLRLCVFDLRRGQHEGQELDKILFFYPPDLTFSTQLSVIGLSEGLITFTRLFSPEAACEVIEAERHSHVFYEAEPDIWMVMIVEKNKEIEAVWRIDALRRVLKEVHSLFVMFQGSIRALLEKEPTGGLVRSHLYPFITDYLNDLFVGKKQQLPSFRDTLKERGTVQMLTLARDAALEVQSLVGVLDSCAGTVRCHSVILFHDLLVSTTLSPDDTVDLFAFSVMRLTTNALSSGTSSWSYLRKGSGSPQISSRSTTVPPLGSGGTLPSGNGSSTGRVIRPLQHDKWSKGKDGFLVTDIWGLDATPTILIQKTQESFYLLTYQYKSLTLVLLVPIAAIVNGELDISFVKQQVIENASTKILKVEEKLSKGWGGENAYHVSGYRYLLVDNDMEVSRASPPGKVATLAKESLLALNKLREEVDTEKNRSKQEKDMEICIRAKNNTWVIARLNRGKELYMALEKASETLLDATDSVQRFSNRYCSGAFPMD | failed
MGMEHKTYEADLFVWCQQQADGLRALSRSRRDLPDDLDLEHIAEEIEDMGRSELREATSLVRQICVRVIMAMSAPEAPDRARWRSEVVSWHNLLLDTITPGMIDRIDIGVIWRRAVSEAKAALIEINVAPQAGLSFQAPLPADHFLDEDFDYDATVARLGPTA | not failed
MGMPAGPYLLTPPGVYAPQHDTDLLARALRREDIDTSTEVLDLGTGSGALAVHAARLGARVTAVDISRRAVLTARLNALLAGRRVTVRRGDLTAAVPGRSYDLVVSNPPYVPSPSARLPSRGAARAWDAGHDGRAFVDRICDTAPAALRAGGALLIVHSALCGTRPTLDRLAAAGLDASVTDRAFVPFGPVLRARRAWLRRQGLLTDENLEELVVIRAEHS | failed
MGNKKEIAIVALTTGFVLTSVTPYGVGHAEETGQMQVEIQEDSFRTGDLTQPSKKAPENVVKDALKENTEHALSPKQVSAETGVDYKVLQKRGSYDGTTLVRMQQIYEGKEVYGHQLTAHVDKKGIIKSISGASAQNLTQEDLKKPINLSKEEAKQYIYKKYGNDTKFISEPEVKAVIFVDENHGQASNAYQVTFAATTPNYVSGTYLVNAHNGEMLKDMVQESSLKISEEYVESVKENKTSNFTSLTGTGKDDLGVTRTFGISKQTSGNYALADYTRGQGIETYDVNYRDITNEESYYPGILATSVSTTFNDPKAVSAHFLATKVYDFYKEKYKRNSFDNKGKKVVSVVHAWDSGGTNDPENWENAFSTNINNISMLLYGDPMVKAFDIAGHEFTHAVTSSESNLEFSGESGAINEALSDIMGTAIEKYINNGEFNWTIGEQTGSTFRNMKNPTAINFSEGLPYPDDYSKYNDLNGEDYGGVHFNSSIINKVAYLMAQGGTHNGVNVNGIGEDRMFDIFYYANTDELNMTSNFSELKLACLKVATNKYGANSIEVQAVQNAFDAAKITGTVKENEKTAENQAPELTVPFTITLRVGDTFDPMRNVKAVDKEDGDLTNKVKHKGDVDTSKPGTYIVEYMVVDSQGRNATATQTVIVEGNGETSDLEPKLTVPVGATIHVGDSFVPMAEVLAIDKEDGDLTSKIKVDGEVDTTKAGTYVLTYTVTDSKGHEVTAKQTVTVKVREEVKNDKPILKVPATTSITEGDQFDPLVGVSATDKEDGDLISKVAYEGTIDTTKAGTYEIIYSVRDSVGNEVNAIQKVLVKDKETSKANGLANKENKSNISNNSNSDKKEYTYKELPKTGVSTTNSAAIGILIIIVGTVLTLVRKFRKIQK | failed
MGNQLAIQMNSDEDDDFDSSDNELGFNVINFTVNAMDLRSDYCSSEMPVIRGKPDLVKFQKTDMYKEIQASSGLVSNPNNRWNLVHALQQRENGLASPHSASFSKNQQRYISNLYIPNKKATRLMSLESKIFVTKFNRSGSKLLTACQDGFVRIYDGAKGTYHLLNRIRARDVEWSIIDADFSPNGEHFAYSTWSRSLFIMPVNGGEDDCQWIDVNGLPSHRLAIFSLRYSPTGDKIIGGSNNSTVIVTDIRTRNTQILRTHRMPGKDVNSVCFLHDKDPNVIIAGCDDGLLKVYDLRTTFRSRDLSKSVASFIGHYDGITYIDSRNDGYHVLSNSKDQSIKIWDIRQPSNMRNRSRSRQQVDPTTWDYRWNRVPREFYNPHKPLEGDSSIMTYRGHRVTKTLLRAKFSPMEQTGQRYIYTGCATGRIIIYDVLTGKIQEAIEGHRTVIRDLDWHPDRSEIVSGSWDTHVHLNNFSRSNANRPVKRSHSSDHDKKPLRRSRRLANRNVTPD | failed
MGNVGLLFVGAVLFMNGLLLLGKVDAKAAAVFNLFIGALQVLTPTYLIFTANGDPMKILAASGIYLFGFTYLYVGIGLLTGLDSTGVGYYSLFVAVAALGYSFVNFRLFKDYPFGVIWLYWAYLWFLFFLLLGLKKDDLKIYTGWVTAIEGWVTGAIPAGLLLSGYWKHPTETAIALAVFGVVVFVGLWPRTHRTPRPTSAAPRTGGVGAPT | failed
MGPRRLLLVAACFSLCGPLLSARTRARRPESKATNATLDPRSFLLRNPNDKYEPFWEDEEKNESGLTEYRLVSINKSSPLQKQLPAFISEDASGYLTSSWLTLFVPSVYTGVFVVSLPLNIMAIVVFILKMKVKKPAVVYMLHLATADVLFVSVLPFKISYYFSGSDWQFGSELCRFVTAAFYCNMYASILLMTVISIDRFLAVVYPMQSLSWRTLGRASFTCLAIWALAIAGVVPLLLKEQTIQVPGLNITTCHDVLNETLLEGYYAYYFSAFSAVFFFVPLIISTVCYVSIIRCLSSSAVANRSKKSRALFLSAAVFCIFIICFGPTNVLLIAHYSFLSHTSTTEAAYFAYLLCVCVSSISCCIDPLIYYYASSECQRYVYSILCCKESSDPSSYNSSGQLMASKMDTCSSNLNNSIYKKLLT | failed
MGQFSILGFIALGGAIGACSRYLVSEFCVLLFGRGFPYGTLTVNVVGSFIMGLLIAAFENEILATEPWRQVIGLGFLGALTTFSTFSMDNVLLMQQGAFFKMGLNILLNVVLSISAAWIGFQLLMRS | failed
MGQKAKAQAPTTHPRPHTLSSQVAPALPRRPRHAAPESLRQARGEVMKAHLITYGCQMNEYDTHLVQSQLVSFGADIVESPDEADFVLVNTCAVRGKPVDKVRSLLGDLRKQKAQRSLVVGMMGCLAQLEEGQQIARKFEVDVLLGPGSLLDIGAALESNERFWGLQFKDELHDHIPPPPSGKLQAHLTIMRGCDHHCTYCIVPTTRGPQVSRHPDDILRELDMQLAAGVREVTLLGQNVNAYGVDQGAKLKGYPSFADLLRMVGASGIERVKFTTSHPMNFTEDVAAAIGETPAICEFVHLPVQSGSDRVLRRMAREYNREKYLTHIAQIKKHIPDVVLATDIIVGFPGETEEDFQDTLSLYDEVGYDSAYMFIYSPRPGTPSYKHFQDLPRELKTERLQRLIARQKDWSARKNAQKVGTVQQVLLRGDAHDAGFLEGHTRGNHPTVVPKAIGADGAGVYQVRIDHATPHMMYGHILGPDGQPLPEQPRFNPEAAAVGGALPML | failed
MGRAHVSTHELVAGRYRLFEVVQRETNRVCWSGEDATTGRPCLVTRIELPEGRAGEAARRAPGRVIRTGETMASLCPGRIAPVLDAVVADGMLWTVTEWVAGVPLGDLLDRRGAFGCARAARVGLELLAVLEAAHTHGVTHGELSPGQVFVREEGSVLVTGFGLAGATLAPRLTAPAYASPEQARDERIGPAADLWTLGAILYTMVEGRPPFRDRGRPEATLKGVDRLPLRTPVRAGPLAQAVTGLLRKNSRERPTRPVVRAALARALAEDPGTAVTEVTTGPGVRGGYAAARTAGRDRSRRTVAAGTALAVVTVAVAVLADLAVTDGLPGRGDGAAAGARQRPSASAAPPTGSAPAAASPGSPSSPAGRPSASASPSKPGVPAPAGFRRYDAPEGFSVALPEGWRRLDTASAPGGAYRVVFGASGDPRTLAVTYSRRAGADPVVVWRDDVEPGLARSDGYRRIGEIRSTTYRGRAAADMEWLVRDDGTRLRTFGRGFLLGGGRSFSLRWTTPAGDWDDSANERALAAFLGTFRDGAA | failed
MGRAMGDSFTFIFNPAADKGRAADKTALIERSLAHFEVASLETTRFAGHAAEIARAAAGEGSTLIACGGDGTLNEVVNAVAGQPVKVGVLPVGSANDFLKTFNPSAKEHEVRIRGFAGATSRKVDLGKV | failed
MGREFLDLFEQWAESYDQSVEGYDEQYRDVFAGYDRILSTVADKAGQVVLEFGIGTGNLTKKLLERGKTVYGIEPSAPMRKKAAEKLGERAVIMDGDFLQFPLPPEPIDTIASTYAFHHLTDAEKDEAIAKYSQLLHSGGKIVFADTAFRDKEAFRQTVEAARARGFHDLADDLEREYYTTLDVLASLFANHGFSVSFAQQNAFVWVMEAVKQTTLEHHHHHH | not failed
MGRKNSPSERERELQNLIAQYEAVKAKNESLYLDGDQLADIADLYASERKFKEAQEVITYGLGLHPGHTDLMVEQAYLFLDLNQPQKAKEVAELITDTYSSNVKLLLAELLLNEGKLDAADQMLDSIEEEEKNDLGILVDIVYLYTDLGYPEKGVQWLKRGAEMYKDDEDFLAATADCYGAAGAEYIEQAIVVFNKLIDKNPYNPAYWVGLAKCQFATKDFDKAIESCDFAIAADEEFGEAHIIKAHSLFHLENIEGAIVEYRKALKYKTLSPEFTYMFIGLAYTQQENWAEANESYSMALRAIEENGNGSSPLLSDIYSNKALCASRQGDSEEAHRLCRLAKELAPQDAEPYLLEGRIYMEEDNFDLARAEWALALRYAPEADTWMEIGNYSLEFRMLENARFCFEQVLEEDPEYPKICEQLAAVCLVLQDHEGFKKYNAMSGDSINLDSLRDTILEMGVDGEQMLRELDDFLKDEK | failed
MGRLSGKTILVTGAASGIGRAALDLFAREGASLVAVDREERLLAEAVAALEAEAIAVVADVSDPKAVEAVFAEALEEFGRLHGVAHFAGVAHSALSWNLPLEAWEKVLRVNLTGSFLVARKAGEVLEEGGSLVLTGSVAGLGAFGLAHYAAGKLGVVGLARTLALELARKGVRVNVLLPGLIQTPMTAGLPPWAWEQEVGASPLGRAGRPEEVAQAALFLLSEESAYITGQALYVDGGRSIVGPPGLPPGFGPKGGERHAHVL | not failed
MGRNDPLAAYNAKRDFARTAEPAGKRKSSATGNLFIVQKHDATRLHWDFRMEVDGVLKSWAVTRGPSPDPDDKRLAVQTEDHPLEYARFEGIIPEGEYGGGTVMLWDKGTWEPVEGKSAKDLEKGHLHFRLEGERMKGEWLLVRLKRRGNEKRDNWLLRKLDDAYAGQGDQLVERGLTSVLTGRTMAEIASDKAGSHSLKGKRGKAFASVMEEAGTHNRKVGKARGKAPSRARRNAPLPAFQPVQLATLVDTVPDGRQWLYEIKFDGYRALVAVRGTEVRVFTRSGLDWTEKFAPLARHLAGLKLPSCLIDGEIVAADADGNPDFSRLQAVLKRGHGEQGEGDALSFHAFDLLELEGEDLKPLPNVERKQKLAALLAGVSPPIHVADHIIGGGEKLLGALCGAGQEGIICKRADAAYAGKRTQNWLKVKCVARQEFIVVGFTRSSARRRPFASLLLAQREGKALVYKGKVGTGFDEDLLQDLATRFEALKVDEGPLDVPITEARGVTWLKPELVAEIAFAEFTAEGRVRHASFVGLREDKKAADVVPERPAPLVVQPEIVPISNRERVIFPESGQTKGDLADYYAAMAPAMLPFIANRPVSLVRCPQGRARHCFFQKHDSGSFGEHVHHVPIREKDGNEEEYLFVSDAAGILSCVQMGTIEFHGWCSLASDVEAPERMVIDLDPDEGLDFNDVKRAARDIRDRLSDLGLVSFAMLSGGKGVHVVVPLRPDHTWEAHASFAERFARALALAEPDRYVATMSKARRKGRIFIDWLRNRRGSTAVMPYSARARANAPVAVPIAWEELDDFANAHPFCIGDTAGLLKRSEGKSLRGWGMAQQSLPDV | failed
MGRTVVVLGGGISGLAASYHLSRAPCPPKVVLVESSERLGGWIRSVRGPNGAIFELGPRGIRPAGALGARTLLLVSELGLDSEVLPVRGDHPAAQNRFLYVGGALHALPTGLRGLLRPSPPFSKPLFWAGLRELTKPRGKEPDETVHSFAQRRLGPEVASLAMDSLCRGVFAGNSRELSIRSCFPSLFQAEQTHRSILLGLLLGAGRTPQPDSALIRQALAERWSQWSLRGGLEMLPQALETHLTSRGVSVLRGQPVCGLSLQAEGRWKVSLRDSSLEADHVISAIPASVLSELLPAEAAPLARALSAITAVSVAVVNLQYQGAHLPVQGFGHLVPSSEDPGVLGIVYDSVAFPEQDGSPPGLRVTVMLGGSWLQTLEASGCVLSQELFQQRAQEAAATQLGLKEMPSHCLVHLHKNCIPQYTLGHWQKLESARQFLTAHRLPLTLAGASYEGVAVNDCIESGRQAAVSVLGTEPNS | failed
